“And” between values parts separate entries of the source, which are not always exact repeats. Identical values can stand only once. Like-named read-outs stand apart in the source and are kept apart here.
Tests used:
[1] = molecular target: rat sst1 receptor (expressed in stably transfected CHO-K1 cells, CHO-R1) (rat) (UniProt P28646); assay: PEG precipitation of solubilised radioligand-receptor complex from CHO-R1 cells
[2] = molecular target: rat sst1 receptor (expressed in stably transfected CHO-K1 cells, CHO-R1) (rat) (UniProt P28646); assay: as above; remark: listed apart in the source
[3] = molecular target: rat sst1 receptor (expressed in stably transfected CHO-K1 cells, CHO-R1) (rat) (UniProt P28646); assay: as above; remark: listed apart in the source
[4] = molecular target: rat sst2A receptor (expressed in stably transfected CHO-K1 cells, CHO-R2 / CHO-R2A) (rat) (UniProt P30680); assay: PEG precipitation of solubilised radioligand-receptor complex from CHO-R2 cells
[5] = molecular target: sst3 receptor (expressed in stably transfected CHO-K1 cells, CHO-R3); assay: PEG precipitation of solubilised radioligand-receptor complex from CHO-R3 cells
[6] = molecular target: sst4 receptor (expressed in stably transfected CHO-K1 cells, CHO-R4); assay: PEG precipitation of solubilised radioligand-receptor complex from CHO-R4 cells
[7] = molecular target: rat sst2A receptor (expressed in stably transfected CHO-K1 cells, CHO-R2 / CHO-R2A) (rat) (UniProt P30680); assay: PEG precipitation of solubilised radioligand-receptor complex from CHO-R2 cells; remark: listed apart in the source
[8] = molecular target: rat sst1 receptor (expressed in stably transfected CHO-K1 cells, CHO-R1) (rat) (UniProt P28646); assay: PEG precipitation of solubilised radioligand-receptor complex from CHO-R1 cells; remark: listed apart in the source
[9] = molecular target: rat sst2A receptor (expressed in stably transfected CHO-K1 cells, CHO-R2 / CHO-R2A) (rat) (UniProt P30680); assay: PEG precipitation of solubilised radioligand-receptor complex from CHO-R2 cells; remark: listed apart in the source
[10] = molecular target: sst4 receptor (expressed in stably transfected CHO-K1 cells, CHO-R4); assay: PEG precipitation of solubilised radioligand-receptor complex from CHO-R4 cells; remark: listed apart in the source
[11] = molecular target: sst4 receptor (expressed in stably transfected CHO-K1 cells, CHO-R4); assay: as above; remark: listed apart in the source
[12] = molecular target: rat sst1 receptor (expressed in stably transfected CHO-K1 cells, CHO-R1) (rat) (UniProt P28646); assay: PEG precipitation of solubilised radioligand-receptor complex from CHO-R1 cells; remark: listed apart in the source
[13] = molecular target: rat sst2A receptor (expressed in stably transfected CHO-K1 cells, CHO-R2 / CHO-R2A) (rat) (UniProt P30680); assay: dissociation from the receptor complex immunoprecipitated with R2-88 from GH4C1 cells, no guanine nucleotide
[14] = molecular target: rat sst1 receptor (expressed in stably transfected CHO-K1 cells, CHO-R1) (rat) (UniProt P28646); assay: dissociation from the receptor complex immunoprecipitated with R1-201 from CHO-R1 cells, no guanine nucleotide

Precipitated Complex (cpm), PEG [1]: 7100 cpm
Precipitated Complex (cpm), PEG [2]: 8350 cpm
Precipitated Complex (cpm), PEG [3]: 15100 cpm
Precipitated Complex (cpm), PEG [4]: 16200 cpm
Precipitated Complex (cpm), PEG [5]: 683 cpm
Precipitated Complex (cpm), PEG [6]: 12500 cpm
Precipitated Complex (cpm), PEG [7]: 8490 cpm
Precipitated Complex (cpm), PEG [8]: 7060 cpm
Precipitated Complex (cpm), PEG [9]: 8840 cpm and 6330 cpm
Precipitated Complex (cpm), PEG [10]: 10000 cpm
Precipitated Complex (cpm), PEG [11]: 4980 cpm and 10000 cpm
Precipitated Complex (cpm), PEG [12]: 706 cpm
percent of specifically bound ligand dissociated [13]: 12%
percent of specifically bound ligand dissociated [14]: 53%
Substance: [125I-Tyr11]SRIF (peptide)
